Reference: patent US20140186327

How the values were obtained:
[1] = molecular target: T1, soluble tissue factor (sTF), P13726
T1 chain: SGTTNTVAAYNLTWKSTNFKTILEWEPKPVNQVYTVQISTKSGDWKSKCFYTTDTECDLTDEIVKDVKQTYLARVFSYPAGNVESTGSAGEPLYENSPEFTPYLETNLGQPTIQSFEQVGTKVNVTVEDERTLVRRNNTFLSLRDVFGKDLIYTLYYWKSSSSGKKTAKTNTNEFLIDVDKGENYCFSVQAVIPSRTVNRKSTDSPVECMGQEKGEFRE

FXI protease
Concentration by Activity (ng/ml), aPTT based factor assay (FIX-/FXI/-XTEN_AE864): 11 ng/mL | Fraction Active (activity / ELISA) (FIX-/FXI/-XTEN_AE864): 40% | fold enhancement of clotting activity against FIX-XTEN (aPTT based factor assay) (FIX-/FXI/-XTEN_AE864): In all three cases the presence of a FXI cleavage site enhanced the clotting activity by greater than 30-fold | Concentration by Activity (ng/ml), aPTT based factor assay (FIX-KLTRAET-XTEN_AE864): 7 ng/mL | Fraction Active (activity / ELISA) (FIX-KLTRAET-XTEN_AE864): 30% | fold enhancement of clotting activity against FIX-XTEN (aPTT based factor assay) (FIX-KLTRAET-XTEN_AE864): In all three cases the presence of a FXI cleavage site enhanced the clotting activity by greater than 30-fold | Concentration by Activity (ng/ml), aPTT based factor assay (FIX-DFTRVVG-XTEN_AE864): 9 ng/mL | Fraction Active (activity / ELISA) (FIX-DFTRVVG-XTEN_AE864): 34% | fold enhancement of clotting activity against FIX-XTEN (aPTT based factor assay) (FIX-DFTRVVG-XTEN_AE864): In all three cases the presence of a FXI cleavage site enhanced the clotting activity by greater than 30-fold

FXa from Novagen
conversion of FVII-XTEN to FVIIa-XTEN (reducing SDS-PAGE) (FVII-XTEN_AE864): Reducing SDS-PAGE indicated a complete conversion of FVII-XTEN proteins to FVIIa-XTEN proteins | conversion of FVII-XTEN to FVIIa-XTEN (reducing SDS-PAGE) (FVII-XTEN_AE288): Reducing SDS-PAGE indicated a complete conversion of FVII-XTEN proteins to FVIIa-XTEN proteins

B1: FVIIa-AE288 (protein)
chain: AVFVTQEEAHGVLHRRRRANAFLEELRPGSLERECKEEQCSFEEAREIFKDAERTKLFWISYSDGDQCASSPCQNGGSCKDQLQSYICFCLPAFEGRNCETHKDDQLICVNENGGCEQYCSDHTGTKRSCRCHEGYSLLADGVSCTPTVEYPCGKIPILEKRNASKPQGRIVGGKVCPKGECPWQVLLLVNGAQLCGGTLINTIWVVSAAHCFDKIKNWRNLIAVLGEHDLSEHDGDEQSRRVAQVIIPSTYVPGTTNHDIALLRLHQPVVLTDHVVPLCLPERTFSERTLAFVRFSLVSGWGQLLDRGATALELMVLNVPRLMTQDCLQQSRKVGDSPNITEYMFCAGYSDGSKDSCKGDSGGPHATHYRGTWYLTGIVSWGQGCATVGHFGVYTRVSQYIEWLQKLMRSEPRPGVLLRAPFPGSPGTSESATPESGPGSEPATSGSETPGTSESATPESGPGSEPATSGSETPGTSESATPESGPGTSTEPSEGSAPGSPAGSPTSTEEGTSESATPESGPGSEPATSGSETPGTSESATPESGPGSPAGSPTSTEEGSPAGSPTSTEEGTSTEPSEGSAPGTSESATPESGPGTSESATPESGPGTSESATPESGPGSEPATSGSETPGSEPATSGSETPGSPAGSPTSTEEGTSTEPSEGSAPGTSTEPSEGSAPGSEPATSGSETPGTSESATPESGPGTSTEPSEGSAPGSSS
soluble tissue factor (sTF) induced clotting (Stago STA-Clot FVIIa activity assay) [1]: an activity equivalent to 112 U/ml of FVIIa activity
